Measurements as given in patent publication US20250027068.
Changes are numbered by the printed parent chain.

B1: PRT-23 (protein)
chain: MANQEIRYSEVTPYHVTSVWTKGVTPPANFTQGEDVFHAPYVANQGWYDITKTFNGKDDLLCGAATAGNMLHWWFDQNKDQIERYLKEHPEKQKINFNGEQMFDVKEAIDTKNSQTDSKLFEYFKEKAFPYLSTKHLGVFPDHVIDMFINGYRLSLTNHGPTPVKEGSKDPRGGIFDAVFTRGDQSKLLTSRHDFKEKNLKEISDLIKKELTEGKALGLSHTYANVRINHVINLWGADFDSNGNLEAIYVTDSDSNASIGMKKYFVGVNSAGKVAISAKEIKEDNIGAQVLGLFTLSTGQDIWNQTN
B2: PRT-242 (protein)
chain: MVTSVWTKGVTPPANFTQGEDVFHAPYVANQGWYDITKTFNGKDDLLCGAATAGNMLHWWFDQNKDQIKRYLEEHPEKQKINFNGEQMFDVKEAIDTKNHQLDSKLFDYFKEKAFPNLSTKHLGVFPDHVIDMFINGYRLSLLNHGPTPVKEGSKDPRGGIFDAVFTRGDQSKLLTSRHDFKEKNLKEISDLIKKELTEGKALGLSHTYANVRINHVINLWGADFDSNGNLKAIYVTDSDSNPSIGMKKYFVGVNSSGKVAISAKEIKEDNIGAQVLGLFTLSTGQDSWNQTN
B3: PRT-321 (protein)
chain: MTITSVWTKGVTPPTPEDFRENNEDVLHAPYVANQGWYDITKTFDGKDNLLCGAATAGNMLHWWFDQNKEEIERYLKKHPEKQKIIFGNQELFDVKAAIDTKDSQTNSKLFDYFRDKAFPNLSARQLGVMPDLVLDMFINGYYLNLPKTQSTDVNRPYQDKDKRGGIFDAVFTRGDQTTLLTARHDLKNKGLNEISDLIKQELTEGKALALSHTYANVRINHVINLWGADFDAEGNLIAIYVTDSDANASIGMKKYAVGVNANGKVAISAKKIEGDNIGAQVLGLFTLSTGQDQWQKLS
B4: PRT-329 (protein)
chain: B3 chain with G88N, D112N, N121G, M130F, P147G, D176V, A257F, V260R, T290L, Q294I
B5: PRT-273 (protein)
chain: MVTSVWTKGVTPPTDFIYGEDVLHAPYKAGQGWYDITKTFNGKDNLLCGAATAGNMLHWWFDQNKEQIENYLKKHPEKQKIIFNNQELFDLKAAIDTKDSQLDSKLFEYFKEKAFPNLSTKHLGVFPDHVIDMFINGYRLSLLNHGPTPVKRGSKDKRGGIFDAVFTRGVQSKLLTNRHDLKNKTLKEISDLIKQELTEGKALGISHTYANVRINHVINLWGADFDAEGNLEAIYVTDSDTNASIGMKKYFVGVNSSGKVAISAKEIEEDNIGAQVLGLFTLSTGQDIWNQTN
B6: PRT-313 (protein)
chain: MQITSVWTKGVTPLTPEQFRENNEDVIHAPYLAHQGWYDITKAFDGKDNLLCGAATAGNMLHWWFDQNKTEIEAYLSKHPEKQKIIFGNQELFDLKAAIDTKDSQTNSQLFDYFRDKAFPNLSARQLGVMPDLVLDMFINGYYLNVGKTQSTDVNRPYQDKDKRGGIFDAVFTRGDQTTLLTARHDLKNKGLNDISTIIKQELTEGRALALSHTYANVSISHVINLWGADFNAEGELEAIYVTDSDANPSIGMKKYFVGRNAHGHVAISAKKIEGENIGAQVLGLFTLSSGKDIWQKLS
B7: PRT-281 (protein)
chain: MVTSVWTKGVTPPAKFTQGEDVFHAPYVANQGWYDITKTFNGKDDLLCGAATAGNMLHWWFDQNKEKIEAYLKKHPDKQKIMFGDQELLDVRKVINTKGDQTNSELFNYFRDKAFPNLSARRIGVMPDLVLDMFINGYYLNVYKTQTTDVNRTYQEKDRRGGIFDAVFTRGDQSKLLTSRHDFKEKNLKEISDLIKKELTEGKALGLSHTYANVRIGHVINLWGADFDSNGNLKAIYVTDSDSNASIGMKKYFVGVNSSGKVAISAKEIKEDNIGAQVLGLFTLSTGQDSWNQTN
B8: PRT-249 (protein)
chain: MVTSVWTKGVTPPTNFTYGEDVLHAPYVANQGWYDITKTFNGKDDLLCGAATAGNMLHWWFDQNKEQIENYLKKHPEKQKINFNGEQMFDVKEAIDTKDSQLDSKLFDYFKEKAFPNLSTKHLGVFPDHVIDMFINGYRLSLLNHGPTPVKRGSKDPRGGIFDAVFTRGDQSKLLTNRHDFKEKTLKEISDLIKQELTEGKALGISHTYANVRINHVINLWGADFDAEGNLEAIYVTDSDSNPSIGMKKYFVGVNSSGKVAISAKEIEEDNIGAQVLGLFTLSTGQDIWNQTN
B9: PRT-257 (protein)
chain: B8 chain with T39L, N117Y, L143T
B10: PRT-289 (protein)
chain: MVTSVWTKGVTPPADFTQGEDVFHAPYVANQGWYDITKTFNGKDDLLCGAATAGNMLHWWFDQNKEYIEAYLKKHPEKQKIMFGDQELLDVRKAINTKGSQKNSELFNYFRDKAFPNLSARRLGVMPDLVLDMFINGYYLNVTKTQTTDVNRTYQEKDKRGGIFDAVFTRGDQSKLLTSRHDFKEKGLKEISDLIKQELTEGKALGLSHTYANVGINHVINLWGADFDSDGNLKAIYVTDSDSNASIGMKKYFVGVNSSGKVAISAKEIKEDNIGAQVLGLFTLSTGQDIWNQTN
B11: PRT-305 (protein)
chain: B10 chain with A14T, T17I, Q18K, V28K, N30G, T39E, G215R, N217G, F253G, S259A
B12: PRT-297 (protein)
chain: B10 chain with V28D, T39E, G215R, N217G, F253G, S259A
B13: PRT-265 (protein)
chain: MVTSVWTKGVTPPTNFTYGEDVLHAPYVANQGWYDITKLFNGKDNLLCGAATAGNMLHWWFDQNKEQIENYLKKHPEKQKINFNGEQLFDVKEAIDTKDSQLDSKLFEYFLEKAFPYLSTKHLGVFPDHVIDMFINGYRLSLTNHGPTPVKRGSKDKRGGIFDAVFTRGVQSKLLTNRHDFKEKTLKEISDLIKQELTEGKALGISHTYANVRINHVINLWGADFDAEGNLEAIAVTDSDTNASIGMKKYFVGVNSSGKVAISAKEIEEDNIGAQVLGLFTLSTGQDIWNQTN

Molecular target: pooled human IgG

Protein	Enzyme Activity Endpoint Assay: Fab′2 [ng/µL]	Enzyme Activity Endpoint Assay: Fc [ng/µL]	Enzyme Activity Endpoint Assay: IgG [ng/µL]	Enzyme Activity Endpoint Assay: scIgG [ng/µL]	Enzyme Activity Endpoint Assay (purified): Fab'2 [ng/µL]	Enzyme Activity Endpoint Assay (purified): Fc [ng/µL]	Enzyme Activity Endpoint Assay (purified): IgG [ng/µL]	Enzyme Activity Endpoint Assay (purified): scIgG [ng/µL]
B1	45	125	12	19				
B2					1030	418	0	0
B3					469	337	139	214
B4					928	406	0	0
B5					782	429	0	0
B6					409	303	114	328
B7					673	317	347	29
B8					818	457	0	0
B9					1050	439	0	0
B10					581	304	90	114
B11					786	359	91	0
B12					484	345	338	0
B13					0	3	1640	0
